Legend:
[1] = molecular target: T1, Myc-UEV^VPS37A (UEV domain of VPS37A only) (UniProt Q8NEZ2 23-217, [35S]-methionine radiolabel); experiment: GST pulldown of in vitro translated Myc-tagged protein (FIG. 7C)
T1 construct: domain: UEV; the legend is followed; The limits 23-217 are stated for the AlphaFold input, not expressly for the clone; also called Myc-UEV^VP37A; not shown: Myc tag
T1 sequence (looked up): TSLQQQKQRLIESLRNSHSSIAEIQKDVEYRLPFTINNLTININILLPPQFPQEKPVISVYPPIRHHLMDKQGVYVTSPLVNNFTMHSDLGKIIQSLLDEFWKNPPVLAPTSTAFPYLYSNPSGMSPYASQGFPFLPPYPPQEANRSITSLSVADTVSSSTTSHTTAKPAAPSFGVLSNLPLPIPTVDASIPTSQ
Source text: (§1) 7A, Co-IP analysis of interactions between FLAG-VPS37A and GFP-LC3A and GFP-GABARAP (GABA) in HEK293T cells. 5% of input was loaded. 7B, Schematic of VPS37A full length and deletion constructs: (i) VPS37A^FL, full length, (ii) VPS37A^deltaUEV deletion of UEV (cyan), (iii) UEV^VPS37A, UEV domain only (cyan), (iv) VPS37A^{deltaN(1-90)} deletion of residues 1-90, (v) VPS37A^{deltaN(1-20)}, deletion of residues 1-20 (red), (vi) VPS37A^{Nter-EGFP}, N-ter 1-22 chimera with GFP. 7C, GST-Pull down of Myc-UEV^VP37A and Myc-VPS37AdeltaCEV with GST or GST-LC3A, GST-LC3C and GST-GABARAP, 2% of Input was loaded. 7D, Co-IP between GFP-LC3A with FLAG-VPS37A^FL, UEV^VPS37A and VPS37A^deltaCEV. 7E, VPS37AdeltaCEV AlphaFold predicted structure; sequence, 1-22 residues, N-terminus of VPS37A (red, residues predicted to contact mATG8s. 7F, Representation of AlphaFold predicted complexes (rank 1; VPS37A^deltaCEV and GABARAP). 7G,7H Co-IP analyses in HEK293T cells expressing FLAG-VPS37A and GFP-LC3A (in 7H) or GFP-GABARAP (in 7G).
GST pull-down Assay. Recombinant GST and GST-fusion proteins were produced in Escherichia coli SoluBL21 (Genlantis, #C700200) by inducing expression in overnight cultures with 50-75 μg/mL isopropyl β-D-1-thiogalactopyranoside (IPTG). Expressed proteins were purified by immobilization on Glutathione Sepharose 4 Fast Flow beads (GE Healthcare, #17-5132-01). […]

[2] = molecular target: T2, FLAG-VPS37A (full length) (UniProt Q8NEZ2 1-397); experiment: Co-IP of FLAG-VPS37A and GFP-GABARAP in HEK293T cells (FIG. 7A)
T2 construct: Expressed in HEK293T cells for Co-IP; also called FLAG-VPS37A^FL; pDest-FLAG-VPS37A^Full; not shown: FLAG tag
T2 sequence (looked up): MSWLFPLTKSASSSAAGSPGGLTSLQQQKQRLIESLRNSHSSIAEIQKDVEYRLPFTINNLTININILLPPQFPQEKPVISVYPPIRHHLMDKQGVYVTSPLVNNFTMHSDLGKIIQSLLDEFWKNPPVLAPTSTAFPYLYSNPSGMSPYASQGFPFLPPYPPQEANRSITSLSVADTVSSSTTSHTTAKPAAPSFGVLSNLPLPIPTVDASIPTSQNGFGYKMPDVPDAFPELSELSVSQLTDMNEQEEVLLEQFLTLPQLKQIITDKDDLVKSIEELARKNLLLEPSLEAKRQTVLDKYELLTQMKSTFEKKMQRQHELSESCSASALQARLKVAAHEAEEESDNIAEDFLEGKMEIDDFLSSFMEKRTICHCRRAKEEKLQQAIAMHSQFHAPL
Source text: as §1
Immunoblotting and co-immunoprecipitation assays. Immunoblotting and co-immunoprecipitation (Co-IP) were performed as described previously⁴. For Co-IP, 10 cm dish cells were transfected with 12 μg of plasmids, wherever stated, and lysed in NP-40 buffer containing protease inhibitor cocktail (Roche, cat #11697498001) and PMSF (Sigma, cat #93482). […]

GST-LC3B = GST-LC3B (UniProt Q9GZQ8 1-125); experiment: GST pulldown of in vitro translated [35S] Myc-VPS37A
Source text: Myc-VPS37A with GST or GST tagged LC3A, LC3B, LC3C, GABARAP, GABARAP-L1 and GABARAP-L2. 2% of input was loaded. 1B, AlphaFold predicted complexes between VPS37^{AdeltaCEV} and GABARAP. 1C, Schematic representation of HaloTag (HT)-LC3B MIL/MPL assay adapted for quantitative high content microscopy (HCM). MIL⁺ profiles, HT-LC3B accessible to membrane impermeant ligand; MPL⁺ profiles, HT-LC3B remaining available (not saturated with MIL) to membrane permeant ligand. 1D, MIL/MPL assay in HeLa^WT and HeLa^HexaKO expressing HT-LC3B, starved in EBSS for 90 min±100 nM BafA1. Cells were sequentially incubated with HT ligands MIL and MPL, and HCM quantification carried out; (d-i) MIL-accessible membrane-bound HT-LC3B; (d-ii) MPL-accessible membrane-bound HT-LC3B (remaining available to MPL after MIL saturation). (d-iii) MIL/MPL puncta ratio. […]

B1: GST-LC3C (other, UniProt Q9BXW4 1-147, looked up)
chain: MPPPQKIPSVRPFKQRKSLAIRQEEVAGIRAKFPNKIPVVVERYPRETFLPPLDKTKFLVPQELTMTQFLSIIRSRMVLRATEAFYLLVNNKSLVSMSATMAEIYRDYKDEDGFVYMTYASQETFGCLESAAPRDGSSLEDRPCNPL
notes: Recombinant, made in E. coli, held on glutathione Sepharose beads; also called GTS-LC3C; not shown: GST tag
- binding result [1]: no binding

B2: GFP-GABARAP (other, UniProt O95166 1-116, looked up)
chain: MKFVYKEEHPFEKRRSEGEKIRKKYPDRVPVIVEKAPKARIGDLDKKKYLVPSDLTVGQFYFLIRKRIHLRAEDALFFFVNNVIPPTSATMGQLYQEHHEEDFFLYIAYSDESVYG
notes: Expressed in HEK293T cells for Co-IP; also called GFP-GABARAP (GABA); pDest-GFP-GABARAP; not shown: GFP
- binding result [2]: binds

B3: Myc-VPS37A (in vitro translated, [35S]-radiolabeled, full length) (other)
chain: MSWLFPLTKSASSSAAGSPGGLTSLQQQKQRLIESLRNSHSSIAEIQKDVEYRLPFTINNLTININILLPPQFPQEKPVISVYPPIRHHLMDKQGVYVTSPLVNNFTMHSDLGKIIQSLLDEFWKNPPVLAPTSTAFPYLYSNPSGMSPYASQGFPFLPPYPPQEANRSITSLSVADTVSSSTTSHTTAKPAAPSFGVLSNLPLPIPTVDASIPTSQNGFGYKMPDVPDAFPELSELSVSQLTDMNEQEEVLLEQFLTLPQLKQIITDKDDLVKSIEELARKNLLLEPSLEAKRQTVLDKYELLTQMKSTFEKKMQRQHELSESCSASALQARLKVAAHEAEEESDNIAEDFLEGKMEIDDFLSSFMEKRTICHCRRAKEEKLQQAIAMHSQFHAPL
modifications: [35S]-methionine radiolabel
notes: In vitro translated in reticulocyte lysate; also called VPS37A^FL; not shown: Myc tag
- binding result (GST-LC3B): no binding

B4: GST-GABARAP (other, UniProt O95166 1-117, looked up)
chain: MKFVYKEEHPFEKRRSEGEKIRKKYPDRVPVIVEKAPKARIGDLDKKKYLVPSDLTVGQFYFLIRKRIHLRAEDALFFFVNNVIPPTSATMGQLYQEHHEEDFFLYIAYSDESVYGL
notes: Recombinant, made in E. coli, held on glutathione Sepharose beads; not shown: GST tag
- binding result [1]: no binding

— patent US20250043285A1 (UNM RAINFOREST INNOVATIONS, published 2025)
